target: HLA-A*02:01 (Homo sapiens, UniProt P04439, D140Y/D185E/D98H/E176V/E277Q/G131W/G231S/I119V/I121R/I166T/I218V/L300P/L318F/N151K/N90K/P208A/P217A/Q86G/Q94H/R138H/R169H/T345S); experiment: MHC binding assay: UV-ligand exchange with β2m ELISA (peptide exchange yield); conditions: MHC class I binding score; binding to HLA-A*02:01 ranged by peptide exchange yield (UV-ligand exchange, β2m ELISA)
Summary of the method: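 Binding capacity is expressed as the yield of UV-mediated ligand exchange, reflecting how well each peptide stabilizes peptide-receptive MHC. Stabilized complexes are read out by anti-β2m HRP ELISA (450 nm) after streptavidin capture, with refolded MLA-001 monomer standards for quantitation.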

Substance | Peptide Exchange
143 (QLLDTYFTL; listed as Homo sapiens) [compound 143] | ″+++″ (≥50 = +++)
246 (KLDETGVAL; listed as Homo sapiens) [compound 246] | ″++″ (≥20% = ++)
381 (YLLEENKIKL; listed as Homo sapiens) [compound 381] | ″+++″ (≥50 = +++)
208 (ILLKTEGINL; listed as Homo sapiens) [compound 208] | ″+++″ (≥50 = +++)
379 (YLAELVTPIL; listed as Homo sapiens) [compound 379] | ″+++″ (≥50 = +++)
238 (GLVETELQL; listed as Homo sapiens) [compound 238] | ″+++″ (≥50 = +++)
228 (FLGGLSPGV; listed as Homo sapiens) [compound 228] | ″+++″ (≥50 = +++)
335 (YLYQEQYFI; listed as Homo sapiens) [compound 335] | ″+++″ (≥50 = +++)
170 (TLTFRVETV; listed as Homo sapiens) [compound 170] | ″+++″ (≥50 = +++)
65 (GLDDMKANL; listed as Homo sapiens) [compound 65] | ″++″ (≥20% = ++)
299 (ILEENIPVL; listed as Homo sapiens) [compound 299] | ″+++″ (≥50 = +++)
310 (LLSTLHLLV; listed as Homo sapiens) [compound 310] | ″+++″ (≥50 = +++)
98 (SLIKYFLFV; listed as Homo sapiens) [compound 98] | ″+″ (≥10% = +)
206 (HMQDVRVLL; listed as Homo sapiens) [compound 206] | ″+++″ (≥50 = +++)
324 (SLYSALQQA; listed as Homo sapiens) [compound 324] | ″+++″ (≥50 = +++)
273 (VLGEYSYLL; listed as Homo sapiens) [compound 273] | ″+++″ (≥50 = +++)
272 (VLDELPPLI; listed as Homo sapiens) [compound 272] | ″+++″ (≥50 = +++)
40 (FLDEDDMSL; listed as Homo sapiens) [compound 40] | ″++″ (≥20% = ++)
340 (KLLEEICNL; listed as Homo sapiens) [compound 340] | ″++++″ (≥75% = ++++)
161 (SMDDGMINV; listed as Homo sapiens) [compound 161] | ″+++″ (≥50 = +++)

Substance | Peptide Exchange
82 (GLQSGVDIGV; listed as Homo sapiens) [compound 82] | ″+++″ (≥50 = +++)
122 (LLIPVVPGV; listed as Homo sapiens) [compound 122] | ″+++″ (≥50 = +++)
117 (LLILENILL; listed as Homo sapiens) [compound 117] | ″+++″ (≥50 = +++)
190 (VVMGTVPRL; listed as Homo sapiens) [compound 190] | ″+++″ (≥50 = +++)
357 (FLIQEIKTL; listed as Homo sapiens) [compound 357] | ″+++″ (≥50 = +++)
288 (GLAESTGLLAV; listed as Homo sapiens) [compound 288] | ″+++″ (≥50 = +++)
13 (VVDGMPPGV; listed as Homo sapiens) [compound 13] | ″+++″ (≥50 = +++)
93 (ILFNTQINI; listed as Homo sapiens) [compound 93] | ″+++″ (≥50 = +++)
244 (ILQALAVHL; listed as Homo sapiens) [compound 244] | ″+++″ (≥50 = +++)
149 (SLDNGGYYI; listed as Homo sapiens) [compound 149] | ″+++″ (≥50 = +++)
78 (GLPSFLTEV; listed as Homo sapiens) [compound 78] | ″+++″ (≥50 = +++)
25 (ATYSGLESQSV; listed as Homo sapiens) [compound 25] | ″++″ (≥20% = ++)
258 (RLDYITAEI; listed as Homo sapiens) [compound 258] | ″+++″ (≥50 = +++)
95 (ILGYMAHEHKV; listed as Homo sapiens) [compound 95] | ″++″ (≥20% = ++)
146 (SIIEGPIIKL; listed as Homo sapiens) [compound 146] | ″+++″ (≥50 = +++)
330 (VLMWEIYSL; listed as Homo sapiens) [compound 330] | ″+++″ (≥50 = +++)
217 (ALDEPPYLTV; listed as Homo sapiens) [compound 217] | ″+++″ (≥50 = +++)
138 (NLLDIDAPVTV; listed as Homo sapiens) [compound 138] | ″+++″ (≥50 = +++)
91 (ILDLNTYNV; listed as Homo sapiens) [compound 91] | ″+++″ (≥50 = +++)
41 (FLDPSLDPLL; listed as Homo sapiens) [compound 41] | ″+++″ (≥50 = +++)

Substance | Peptide Exchange
147 (SILETVATL; listed as Homo sapiens) [compound 147] | ″+++″ (≥50 = +++)
374 (VLSVITEEL; listed as Homo sapiens) [compound 374] | ″+++″ (≥50 = +++)
261 (SLVEAQGWLV; listed as Homo sapiens) [compound 261] | ″+++″ (≥50 = +++)
46 (YIIDSAQAV; listed as Homo sapiens) [compound 46] | ″+++″ (≥50 = +++)
233 (GIIDINVRL; listed as Homo sapiens) [compound 233] | ″++″ (≥20% = ++)
224 (AMEALVVEV; listed as Homo sapiens) [compound 224] | ″+++″ (≥50 = +++)
289 (ILEEQPMDMLL; listed as Homo sapiens) [compound 289] | ″+++″ (≥50 = +++)
263 (SQWEDIHVV; listed as Homo sapiens) [compound 263] | ″+++″ (≥50 = +++)
16 (ALPGGAAVAAV; listed as Homo sapiens) [compound 16] | ″++++″ (≥75% = ++++)
269 (TLTDEQFLV; listed as Homo sapiens) [compound 269] | ″++″ (≥20% = ++)
287 (FLWEEKFNSL; listed as Homo sapiens) [compound 287] | ″++++″ (≥75% = ++++)
377 (VVDGTCVAV; listed as Homo sapiens) [compound 377] | ″+++″ (≥50 = +++)
61 (FVYFIVREV; listed as Homo sapiens) [compound 61] | ″+++″ (≥50 = +++)
20 (ALVDPGPDFVV; listed as Homo sapiens) [compound 20] | ″+++″ (≥50 = +++)
205 (GLSQANFTL; listed as Homo sapiens) [compound 205] | ″+++″ (≥50 = +++)
271 (VIRNIVEAA; listed as Homo sapiens) [compound 271] | ″++″ (≥20% = ++)
298 (IILPVEVEV; listed as Homo sapiens) [compound 298] | ″+++″ (≥50 = +++)
4 (VIAELPPKVSV; listed as Homo sapiens) [compound 4] | ″+++″ (≥50 = +++)
232 (FMHQIIDQV; listed as Homo sapiens) [compound 232] | ″++++″ (≥75% = ++++)

Reference: patent publication US10117916B2, “Peptides and combination of peptides for use in immunotherapy against CLL and other cancers” (immatics biotechnologies GmbH, priority 2015, dated 2018)
